We go through two molecules from US12708677B2, “Contrast agents, methods for preparing contrast agents, and methods of imaging” (Georgia State University Research Foundation, Inc., priority 2008, dated 2026).

Marks after values point to notes of the source that are not given here.

Data set [1] is described as follows: In vitro r1 and r2 proton relaxivity. The data set is classed as physicochemical. The settings on record: 3.0 T; 50 μM designed agents, 100 μM Gd-DTPA.
For data set [2] the following is noted: mouse, in vivo. On the procedure: Blood Circulation Time, Tissue Retention Time, and Bio-distribution. CD-1 mice (25-30 g, a group of four mice were tested) were anesthetized with isoflurane. Appropriate dosages of Gd-CA1.CD2 or Gd-DTPA were i.v. injected (via tail vein). Blood (~50 μl) samples were collected via orbital sinus of the mouse at different time points. The mouse was euthanized at the final time point. Tissue samples from kidney, liver, heart, and lung, were collected. Serum samples were prepared from the collected blood. For the bio-distribution analyses, the animals were euthanized at single time point (indicated) after i.v. administration of the contrast agent (indicated). The organ/tissue samples were collected. Tissue extracts were freshly made from collected samples using commercially available tissue extracting kits (Qiagen). CA1.CD2 was detected and quantified by immunoblotting and Sandwich-ELISA using a monoclonal antibody (OX45, detecting antibody) and a home made polyclonal antibody (PabCD2, capture antibody). A series of known amounts of CA1.CD2 samples mixed with blank mouse scrum or tissue extracts were used as standard in Sandwich-ELISA. ELISA signal from HRP was monitored using a Fluorstar fluorescence microplate reader. For quantification of Gd^3+ in the serum and tissue samples one hour (or indicated times) after the contrast agent administration, animals were sacrificed and critical organs were collected, and the tissues were then digested with concentrated nitric acid at 120-130° C. with proper amount of ^157Gd spike as an internal marker. The digested solution was analyzed by ICP-MS (Element 2) using an isotope dilution method.
CD-1 mice (25-30 g) were anesthetized with isoflurane. Appropriate dosages of Gd-CA1.CD2 and its PEgylated variants (with Gd and ^153Gd) or Gd-DTPA were i.v. injected (via tail vein). Blood (~50 μl) samples were collected via orbital sinus of the mouse at different time points. The mouse was euthanized at the final time point. Tissue samples from kidney, liver, heart, and lung were collected. Serum samples were prepared from the collected blood. For the bio-distribution analyses, the animals were euthanized at single time point (indicated) after i.v. administration of the contrast agent (indicated). The organ/tissue samples were collected. Tissue extracts were freshly made from collected samples using commercially available tissue extracting kits (Qiagen). CA1.CD2 and its variants were detected and quantified by immunoblotting and Sandwich-ELISA using a monoclonal antibody (OX45, detecting antibody) and a home made polyclonal antibody (PabCD2, capture antibody). A series of known amounts of CA1.CD2 samples mixed with blank mouse serum or tissue extracts were used as standard in Sandwich-ELISA. ELISA signal from HRP was monitored using a Fluorstar fluorescence microplate reader. For quantification of Gd^3+ in the serum and tissue samples one hour (or indicated times) after the contrast agent administration, animals were sacrificed and critical organs were collected, and the tissues were then digested with concentrated nitric acid at 120-130° ° C. with proper amount of ^153Gd spike as an internal marker. The digested solution was analyzed.

Data set [3] can be described thus: Serum stability in human serum at 37° C., SDS-PAGE. Type of data set: in vitro ADME. As to conditions: 75% human serum, 37° C., 6 hours. The protocol: Serum stability. […] The degradation of the protein (disappearance of 12 kDa protein band) was analyzed by SDS-PAGE and visualized by coomassie blue staining. In parallel, the degradation of the protein was also analyzed by immunoblot using antibodies OX54 or PabCD2. The identities of the 12 kDa bands as CA1.CD2 were always verified by immunobloting using antibody PabCD2.
[…] The degradation of the protein (disappearance of 12 kDa protein band) was analyzed by SDS-PAGE and visualized by coomassie blue staining for protein and idiol staining for PEG moiety. In parallel, the degradation of the protein was also analyzed by immunoblot using antibodies OX54 or PabCD2. The identities of CA1.CD2 and pegylated variants were verified by immunoblotting using antibody PabCD2.and idiol staining.

In a further data set the test system is CD-1 mice. As to the kind of experiment: Toxicity analyses and clinical pathology in mice.

Protocol for CD-1 mice: Toxicity Analyses. […] Tissue samples from kidney, liver, spleen, and lung were collected.
One group of mice received (i.v. tail veil) 50 μl of saline-buffer (as control). […] Blood samples were collected from the experimental mice. Serum samples were prepared from the collected blood. Liver enzymes in serum samples, including Alanine transaminase (ALT), Alkaline phosphatase (ALP), Aspartate transaminase (AST), Gamma glutamyl transpeptidase (GGT), and bilirubin and urea nitrogen were analyzed by a commercially available source (MU Research Animal Diagnostic Laboratory). All clinical chemistry parameters were measured on an Olympus AU 400 analyzer.
Tissue samples from kidney, liver, spleen, and lung were collected.

B1: CA1.CD2: designed Gd^3+-binding protein, domain 1 of rat CD2 with ligand residues Glu15, Glu56, Asp58, Asp62, Asp64 (protein)
chain: RDSGTVWGALGHGIELNIPNFQMTDDIDEVRWERGSTLVAEFKRKMKPFLKSGAFEIDANGDLDIKNLTRDDSGTYNVTVYSTNGTRILNKALDLRILE
As to B1, the “contrast enhancement in T1 weighted imaging of samples” value in data set [1] is reported as “did not lead to significant enhancement”. Besides, in data set [2], the “time first detectable in the kidney” value was found to be 15 min and the “time of peak in the kidney” value is 4 to 5 h. In addition, the “injected dose remaining in the kidney” value in data set [2] (15 h) was “less than 10%”. Also, the “time of sharp decrease in blood concentration of Gd^3+ and CA1.CD2” value in data set [2] (iv) is “about 50 minutes”.

B2: Gd-CA1.CD2: CA1.CD2 in complex with Gd^3+ (protein)
chain: B1 chain
Consider B2, for which the “stability of protein-Gd complex in serum” value in data set [3] is listed as “remained intact”. For the same molecule, in the data set on CD-1 mice (4.0 μmole/kg, n = 4), the ALP was determined as 115.0 ± 0.2 U/L, the ALT is recorded as 49.0 ± 0.2 U/L, the AST came to 280.0 ± 0.2 U/L and the “Direct Bili” value is reported as 0.0 mg/L. In the data set on CD-1 mice (4.0 μmole/kg, n = 4), the GGT amounted to 0.0 U/L, the “Total Bili” value worked out at 0.4 ± 0.2 mg/L, the “Total Urine Protein” value stood at 5.2 ± 0.2 g/L and the “Urea Nitrogen” value was 26.0 ± 0.2^d mg/L. In addition, the “effects on liver enzymes (ALT, ALP, AST), serum urea nitrogen, bilirubin, total protein vs control mice” value in the data set with CD-1 mice (48 hours post-contrast injection) was “negligible”. Moreover, the acute toxicity entry in the data set on CD-1 mice (~2.4 μmole/kg, observed five days) is on record as “did not exhibit acute toxicity”. In data set [1], the “contrast enhancement in T1 weighted imaging of samples” value is recorded as “able to introduce contrast enhancement”. Also, in data set [2], the “time remaining in blood circulation” value was “more than 3 hours”. In addition, the “time without significant decrease in CA1.CD2 levels in blood” value in data set [2] (iv) turned out to be 45 min.
